The target of assay [1] is T1, human FcγRI expressed on CHO cells (human, UniProt P12314 16-374).
T1 construct: whole, on cells
In words: FACS, CHO cells expressing FcγRI. The procedure: For FACS analysis of the IgG mutants' binding to different FcγRs, FcγR overexpressing CHO cells were harvested using trypsin-EDTA and were suspended in cold staining buffer (3% BSA in PBS). Test IgG mutants, which were diluted in staining buffer, were added into the cells. The mixture was incubated 4° C. for 2 hours, and then washed twice with cold staining buffer and re-suspended in PE-labeled anti-human IgG followed by incubation at 4° C. for 2 hours. The mixture was washed twice with staining buffer and re-suspended in 2% PFA in PBS for FACS.

Assay [2] deals with T2, human FcγRIIC expressed on CHO cells (human, UniProt P31995 43-323).
T2 construct: whole, on cells
T2 sequence (looked up): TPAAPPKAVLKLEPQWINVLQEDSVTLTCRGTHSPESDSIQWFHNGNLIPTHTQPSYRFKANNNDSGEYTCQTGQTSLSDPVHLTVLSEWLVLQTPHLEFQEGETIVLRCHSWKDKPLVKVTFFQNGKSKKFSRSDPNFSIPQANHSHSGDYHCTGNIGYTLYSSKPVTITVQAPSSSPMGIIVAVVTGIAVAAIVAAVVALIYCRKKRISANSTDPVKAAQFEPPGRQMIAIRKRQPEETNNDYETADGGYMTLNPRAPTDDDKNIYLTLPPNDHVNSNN
Put plainly: FACS, CHO cells expressing FcγRIIC.

Assay [3] concerns the target T3, human FcRIIA protein (MednaBio, E1033) (human, UniProt P12318 34-218, limits assumed).
T3 construct: Bought; also called FcγRIIA
T3 sequence (looked up): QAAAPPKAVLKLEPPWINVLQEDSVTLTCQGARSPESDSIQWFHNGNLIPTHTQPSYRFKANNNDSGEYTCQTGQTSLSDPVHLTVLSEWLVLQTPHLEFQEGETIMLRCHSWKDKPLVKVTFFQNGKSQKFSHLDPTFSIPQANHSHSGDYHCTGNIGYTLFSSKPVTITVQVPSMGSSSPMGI
In words: BLI. The procedure: (§1) These IgG mutants were tested for binding to a panel of human Fc receptors (FcRs), including FcRn, using the Octet Red96 System (ForteBio, Model #Red96). Human FcR proteins were purchased commercially (FcRn, MednaBio, E1032; FcRI, MednaBio, E1031; FcRIIA, MednaBio, E1033; FcRIIB/C, MednaBio, E1034; FcRIIIA-F158, MednaBio, E1036; FcRIIIA-V158, MednaBio, E1035; FcRIIIB, MednaBio, E1037). All Fey receptor assays were performed at pH 7.2; all FcRn assays were performed at pH 6. The Fey receptors were loaded onto anti-penta-HIS1K (ForteBio, Cat #18-5122) biosensors at a concentration of 20 μg/mL. The loaded biosensors was then be dipped into an 8-point 1:3 dilution series of the test IgG molecules (including controls and the mutants described herein) in PBS with 0.1% BSA, 0.02% Tween-20 (pH 7.2) at a starting concentration of 300 nM. Kinetic analysis was performed using a 1:1 binding model and global fitting.

The target of assay [4] is T4, human FcRIIIA-V158 protein (MednaBio, E1035) (human, UniProt P08637 17-208).
T4 construct: Bought; also called FcγRIIIA(V); FcgRIIIA(V)
In words: BLI. The procedure: as §1

The target of assay [5] is T5, human FcRn protein (MednaBio, E1032) (human, UniProt P55899 24-297; P61769 21-119).
T5 construct: Bought; assays at pH 6
In words: BLI. Here is the method:
as §1
A general note: In BLI a coated tip is dipped into the sample, and binding shifts an interference pattern.

For assay [6], the target named is T6, human FcRIIB/C protein (MednaBio, E1034) (human, UniProt P31994 43-217, limits assumed).
T6 construct: Bought as FcRIIB/C; also called FcγRIIB; CD32B
T6 sequence (looked up): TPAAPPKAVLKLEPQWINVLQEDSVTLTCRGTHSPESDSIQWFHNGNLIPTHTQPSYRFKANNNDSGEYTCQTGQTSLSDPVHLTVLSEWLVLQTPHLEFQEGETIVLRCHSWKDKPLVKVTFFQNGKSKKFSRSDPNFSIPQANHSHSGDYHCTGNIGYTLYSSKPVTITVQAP
Put plainly: BLI. Here is the method:
as §1

Assay [7] deals with T7, human FcRIIIA-F158 protein (MednaBio, E1036) (human, UniProt P08637 17-208).
T7 construct: Bought; also called FcγRIIIA(F)
Put plainly: BLI. Here is the method:
as §1

The target in assay [8] is T8, human FcRIIIB protein (MednaBio, E1037) (human, UniProt O75015 17-200).
T8 construct: Bought; also called FcγRIIIB; FcgRIIIB
In words: BLI. Here is the method:
as §1

The target in assay [9] is T9, human FcRI protein (MednaBio, E1031) (human, UniProt P12314 16-288, limits assumed).
T9 construct: Bought; loaded on anti-penta-HIS biosensors; also called FcγRI
In words: BLI. The procedure:
as §1

By Kd is commonly meant the concentration at which binding is half-saturated. High values mean a looser complex, low ones a tighter complex. As usually defined, the koff is the first-order rate constant of dissociation. Higher therefore signals fast dissociation. What is called kon is the rate constant with which the complex forms. Low readings indicate slow association, high ones fast association.

T5 sequence (P55899 24-297 limits assumed, form in doubt, chain 1 of 2): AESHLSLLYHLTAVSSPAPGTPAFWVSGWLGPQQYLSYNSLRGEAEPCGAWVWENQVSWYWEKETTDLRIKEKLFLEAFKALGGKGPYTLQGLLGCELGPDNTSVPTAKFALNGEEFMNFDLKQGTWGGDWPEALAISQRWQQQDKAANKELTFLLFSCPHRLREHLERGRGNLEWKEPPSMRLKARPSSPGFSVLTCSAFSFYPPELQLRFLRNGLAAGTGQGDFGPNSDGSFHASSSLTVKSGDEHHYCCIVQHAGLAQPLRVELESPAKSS
T5 sequence (P61769 21-119 limits assumed, form in doubt, chain 2 of 2): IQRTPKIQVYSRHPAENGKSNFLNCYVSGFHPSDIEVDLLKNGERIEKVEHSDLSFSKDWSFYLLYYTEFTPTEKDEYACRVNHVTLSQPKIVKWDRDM
T4 sequence (P08637 17-208 F176V): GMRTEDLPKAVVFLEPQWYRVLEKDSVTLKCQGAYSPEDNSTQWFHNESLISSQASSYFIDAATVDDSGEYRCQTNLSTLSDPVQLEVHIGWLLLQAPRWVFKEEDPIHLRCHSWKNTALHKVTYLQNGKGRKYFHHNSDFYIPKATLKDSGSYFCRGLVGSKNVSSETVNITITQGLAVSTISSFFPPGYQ
T7 sequence (P08637 17-208 limits assumed): as the sequence (P08637 17-208 F176V) above, with V160F counted along it
T9 sequence (P12314 16-288 limits assumed): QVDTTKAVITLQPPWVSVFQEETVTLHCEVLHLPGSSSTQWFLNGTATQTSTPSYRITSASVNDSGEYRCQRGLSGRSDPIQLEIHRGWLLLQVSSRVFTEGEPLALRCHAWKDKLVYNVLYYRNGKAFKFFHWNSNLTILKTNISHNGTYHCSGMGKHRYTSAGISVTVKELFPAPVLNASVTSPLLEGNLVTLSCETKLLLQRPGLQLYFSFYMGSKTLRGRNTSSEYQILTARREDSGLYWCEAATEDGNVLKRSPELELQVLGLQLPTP
T1 sequence (P12314 16-374): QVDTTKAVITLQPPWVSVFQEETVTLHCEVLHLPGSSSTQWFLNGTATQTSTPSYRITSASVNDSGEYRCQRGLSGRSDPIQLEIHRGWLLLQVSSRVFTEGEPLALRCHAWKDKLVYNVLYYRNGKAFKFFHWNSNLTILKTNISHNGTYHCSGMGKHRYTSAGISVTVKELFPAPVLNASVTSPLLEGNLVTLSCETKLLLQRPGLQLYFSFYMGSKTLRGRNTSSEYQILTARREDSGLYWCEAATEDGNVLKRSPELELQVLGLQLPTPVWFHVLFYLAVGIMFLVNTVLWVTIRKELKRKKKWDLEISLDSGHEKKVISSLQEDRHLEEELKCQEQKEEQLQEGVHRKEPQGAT
T8 sequence (O75015 17-200 limits assumed): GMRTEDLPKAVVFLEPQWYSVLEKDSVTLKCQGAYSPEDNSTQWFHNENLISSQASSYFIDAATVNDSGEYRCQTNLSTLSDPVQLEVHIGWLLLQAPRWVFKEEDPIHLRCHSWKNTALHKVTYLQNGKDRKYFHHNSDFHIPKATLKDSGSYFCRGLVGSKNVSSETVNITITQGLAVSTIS

B1: anti-CD137 IgG2 with Fc variant G2m10 (antibody)
heavy: EVQLVQSGAEVKKPGESLRISCKGSGYSFSTYWISWVRQMPGKGLEWMGKIYPGDSYTNYSPSFQGQVTISADKSISTAYLQWSSLKASDTAMYYCARGYGIFDYWGQGTLVTVSSASTKGPSVFPLAPCSRSTSESTAALGCLVKDYFPEPVTVSWNSGALTSGVHTFPAVLQSSGLYSLSSVVTVPSSNFGTQTYTCNVDHKPSNTKVDKTVERKCCVECPPCPAPEVSSVFLFPPKPKDTLMISRTPEVTCVVVDVSHEDPEVQFNWYVDGVEVHNAKTKPREEQFNSTFRVVSVLTVVHQDWLNGKEYKCKVSNKGFPAPIEKTISKTKGQPREPQVYTLPPSREEMTKNQVSLTCLVKGFYPSDIAVEWESNGQPENNYKTTPPMLDSDGSFFLYSKLTVDKSRWQQGNVFSCSVMHEALHNHYTQKSLSLSPGK
light: SYELTQPPSVSVSPGQTASITCSGDNIGDQYAHWYQQKPGQSPVLVIYQDKNRPSGIPERFSGSNSGNTATLTISGTQAMDEADYYCATYTGFGSLAVFGGGTKLTVLGQPKAAPSVTLFPPSSEELQANKATLVCLISDFYPGAVTVAWKADSSPVKAGVETTTPSKQSNNKYAASSYLSLTPEQWKSHRSYSCQVTHEGSTVEKTVAPTECS
notes: copies: 2 + 2
Regarding B1, the binding result in assay [1] was “no binding (tested: 10 ug/ml)”; in assay [2], “no binding (tested: 10 ug/ml)”; in assay [4] it was “no binding (tested: 300 nM)”; in assay [6], “no binding (tested: 300 nM)”; in assay [7], “no binding (tested: 300 nM)”; in assay [8], “no binding (tested: 300 nM)”. Further, the binding result in assay [9] is “no binding (tested: 300 nM)”. Besides, the figures for the dissociation constant Kd in assay [3] and in assay [5] were 17 µM and 0.021 µM, respectively. Also, the koff in assay [3] was found to be 0.35 s⁻¹; in [5] it was 0.0088 s⁻¹. Further, the kon was found to be 21000 M⁻¹ s⁻¹ in [3] and 420000 M⁻¹ s⁻¹ in assay [5].

(Values after patent publication US20200392227A1 (LYVGEN BIOPHARMA, published 2020).)
